Measurements reported in paper PMC3176292.

Key:
Experiment in all cases: co-IP; LUMIER: Renilla luciferase-Smad3 and Flag-tagged partner co-expressed with constitutively active Alk5 in HEK-293; Flag protein captured from cleared lysate (TNE: 10 mM Tris-HCl pH 7.8, 150 mM NaCl, 1 mM EDTA, 1% Igepal CA-630) on anti-Flag 96-well plates, 2 h at 4 °C; co-precipitated Renilla luciferase activity, TrxGA background subtracted, percent of wild-type Smad3
Flag-Smad3, full length = Flag-Smad3, full length (UniProt P84022)
Chain of Flag-Smad3, full length (P84022 whole entry): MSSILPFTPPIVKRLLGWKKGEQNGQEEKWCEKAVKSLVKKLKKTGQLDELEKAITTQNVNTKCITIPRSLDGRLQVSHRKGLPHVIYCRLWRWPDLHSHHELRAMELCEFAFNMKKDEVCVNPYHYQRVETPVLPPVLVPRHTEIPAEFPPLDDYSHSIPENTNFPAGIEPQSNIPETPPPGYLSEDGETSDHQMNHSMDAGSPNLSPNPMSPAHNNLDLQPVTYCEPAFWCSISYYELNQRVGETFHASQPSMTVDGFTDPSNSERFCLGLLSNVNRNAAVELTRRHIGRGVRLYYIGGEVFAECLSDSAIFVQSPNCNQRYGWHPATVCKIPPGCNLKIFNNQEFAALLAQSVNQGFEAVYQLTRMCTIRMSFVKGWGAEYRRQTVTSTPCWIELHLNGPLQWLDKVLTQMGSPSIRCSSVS

Flag-SARA, full length = Flag-SARA, full length (UniProt O95405)
Chain of Flag-SARA, full length (O95405 whole entry, the tested form may be a part): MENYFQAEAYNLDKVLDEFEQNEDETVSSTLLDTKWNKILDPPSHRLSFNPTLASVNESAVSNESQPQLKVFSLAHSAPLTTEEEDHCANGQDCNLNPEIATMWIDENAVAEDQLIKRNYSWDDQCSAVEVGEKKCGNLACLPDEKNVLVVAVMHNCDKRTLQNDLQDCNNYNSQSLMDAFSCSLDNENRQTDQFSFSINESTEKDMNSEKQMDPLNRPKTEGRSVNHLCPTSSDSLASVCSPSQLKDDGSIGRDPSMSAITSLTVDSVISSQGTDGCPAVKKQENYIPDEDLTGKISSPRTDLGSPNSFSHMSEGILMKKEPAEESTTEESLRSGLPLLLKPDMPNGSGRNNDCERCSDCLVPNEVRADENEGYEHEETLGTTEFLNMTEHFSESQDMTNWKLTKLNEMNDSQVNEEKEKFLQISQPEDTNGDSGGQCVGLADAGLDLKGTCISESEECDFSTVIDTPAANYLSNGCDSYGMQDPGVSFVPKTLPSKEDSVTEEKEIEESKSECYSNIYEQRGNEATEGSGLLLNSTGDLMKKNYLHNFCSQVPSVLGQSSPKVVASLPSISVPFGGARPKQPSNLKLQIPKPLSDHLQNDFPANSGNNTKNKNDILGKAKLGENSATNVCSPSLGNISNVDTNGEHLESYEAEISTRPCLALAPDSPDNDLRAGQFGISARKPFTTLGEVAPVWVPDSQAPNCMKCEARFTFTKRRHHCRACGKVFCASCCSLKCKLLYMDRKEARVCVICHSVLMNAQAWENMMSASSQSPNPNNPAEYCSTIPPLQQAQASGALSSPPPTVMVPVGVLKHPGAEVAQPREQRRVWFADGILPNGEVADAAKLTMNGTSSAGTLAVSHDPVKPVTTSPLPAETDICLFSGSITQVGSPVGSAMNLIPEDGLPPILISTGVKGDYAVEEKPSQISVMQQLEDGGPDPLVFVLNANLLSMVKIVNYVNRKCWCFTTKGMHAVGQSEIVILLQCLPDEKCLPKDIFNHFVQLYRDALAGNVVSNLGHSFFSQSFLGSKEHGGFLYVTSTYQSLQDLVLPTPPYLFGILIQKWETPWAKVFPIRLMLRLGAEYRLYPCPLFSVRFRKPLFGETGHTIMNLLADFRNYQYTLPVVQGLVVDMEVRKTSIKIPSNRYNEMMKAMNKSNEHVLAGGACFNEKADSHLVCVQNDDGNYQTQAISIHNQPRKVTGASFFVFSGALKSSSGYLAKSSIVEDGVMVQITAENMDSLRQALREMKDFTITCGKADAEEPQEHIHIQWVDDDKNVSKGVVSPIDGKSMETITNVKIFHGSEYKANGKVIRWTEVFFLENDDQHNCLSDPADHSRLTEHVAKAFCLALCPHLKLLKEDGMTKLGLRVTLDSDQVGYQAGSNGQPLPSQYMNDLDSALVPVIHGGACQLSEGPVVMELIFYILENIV

[1] = biological target: Smurf2 Smad-binding domain (amino acids 252–330) on the Flag-thioredoxin scaffold (UniProt Q9HAU4)
Chain of Smurf2 Smad-binding domain (amino acids 252–330) on the Flag-thioredoxin scaffold (Q9HAU4 252-330): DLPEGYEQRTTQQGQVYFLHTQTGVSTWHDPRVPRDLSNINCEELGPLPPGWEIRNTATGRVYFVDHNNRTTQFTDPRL

[2] = biological target: Flag-SkiW274E, full length (UniProt P12755)
Chain of Flag-SkiW274E, full length (P12755 whole entry W274E, the tested form may be a part): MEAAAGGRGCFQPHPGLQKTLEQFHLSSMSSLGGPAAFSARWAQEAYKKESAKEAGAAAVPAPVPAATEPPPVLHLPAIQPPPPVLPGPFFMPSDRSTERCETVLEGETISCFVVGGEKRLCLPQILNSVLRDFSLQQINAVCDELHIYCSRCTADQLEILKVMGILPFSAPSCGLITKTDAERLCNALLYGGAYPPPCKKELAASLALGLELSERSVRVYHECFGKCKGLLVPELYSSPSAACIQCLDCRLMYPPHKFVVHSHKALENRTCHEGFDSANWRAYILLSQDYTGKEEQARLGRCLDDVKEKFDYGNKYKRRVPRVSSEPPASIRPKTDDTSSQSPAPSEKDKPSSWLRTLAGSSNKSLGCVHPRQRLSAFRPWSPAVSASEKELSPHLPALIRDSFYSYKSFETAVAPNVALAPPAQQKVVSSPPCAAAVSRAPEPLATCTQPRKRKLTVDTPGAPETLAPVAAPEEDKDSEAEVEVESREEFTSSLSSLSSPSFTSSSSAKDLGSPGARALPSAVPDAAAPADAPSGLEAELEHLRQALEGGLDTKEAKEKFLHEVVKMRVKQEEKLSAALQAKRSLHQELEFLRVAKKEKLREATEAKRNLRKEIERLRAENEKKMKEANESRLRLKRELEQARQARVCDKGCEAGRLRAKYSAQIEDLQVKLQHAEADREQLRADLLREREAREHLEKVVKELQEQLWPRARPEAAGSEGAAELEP

[3] = biological target: SARA Smad-binding domain (amino acids 665–721) on the 3xFlag-thioredoxin scaffold (UniProt O95405)
Chain of SARA Smad-binding domain (amino acids 665–721) on the 3xFlag-thioredoxin scaffold (O95405 767-823): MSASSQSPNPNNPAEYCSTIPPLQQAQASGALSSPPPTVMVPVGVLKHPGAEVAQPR

[4] = biological target: Ski Smad-binding domain (amino acids 2–56) on the 3xFlag-thioredoxin scaffold (UniProt P12755)
Chain of Ski Smad-binding domain (amino acids 2–56) on the 3xFlag-thioredoxin scaffold (P12755 2-56): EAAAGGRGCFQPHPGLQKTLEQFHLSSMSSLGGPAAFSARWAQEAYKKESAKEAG

[5] = biological target: SIP1 Smad-binding domain (amino acids 315–487) on the 3xFlag-thioredoxin scaffold (UniProt Q9R0G7)
Chain of SIP1 Smad-binding domain (amino acids 315–487) on the 3xFlag-thioredoxin scaffold (Q9R0G7 315-487): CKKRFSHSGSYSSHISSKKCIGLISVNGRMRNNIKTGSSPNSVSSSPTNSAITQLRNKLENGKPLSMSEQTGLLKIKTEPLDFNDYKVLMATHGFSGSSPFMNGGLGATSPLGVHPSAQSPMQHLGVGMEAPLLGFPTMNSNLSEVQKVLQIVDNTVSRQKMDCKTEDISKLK

Flag-Smad4, full length = Flag-Smad4, full length (UniProt Q13485)
Chain of Flag-Smad4, full length (Q13485 whole entry): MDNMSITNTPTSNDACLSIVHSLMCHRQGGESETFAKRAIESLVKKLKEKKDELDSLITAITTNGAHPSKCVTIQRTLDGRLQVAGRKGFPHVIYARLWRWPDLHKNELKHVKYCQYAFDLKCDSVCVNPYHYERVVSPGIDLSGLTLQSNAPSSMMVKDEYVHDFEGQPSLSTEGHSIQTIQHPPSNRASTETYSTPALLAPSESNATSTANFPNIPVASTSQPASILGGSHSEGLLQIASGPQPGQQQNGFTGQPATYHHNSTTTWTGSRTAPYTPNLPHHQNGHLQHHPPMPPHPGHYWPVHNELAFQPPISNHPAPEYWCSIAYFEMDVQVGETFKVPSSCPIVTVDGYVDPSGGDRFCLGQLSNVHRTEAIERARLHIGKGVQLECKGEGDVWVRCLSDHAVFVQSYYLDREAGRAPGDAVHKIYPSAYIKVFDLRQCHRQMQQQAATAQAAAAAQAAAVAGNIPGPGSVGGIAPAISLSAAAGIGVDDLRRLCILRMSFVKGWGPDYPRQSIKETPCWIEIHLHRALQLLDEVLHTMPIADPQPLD

Chain of Renilla luciferase-Smad3 Del-PPGY (182–185) (P84022 whole entry): as the sequence (P84022 whole entry) above

- percent binding relative to wild-type Smad3 (Flag-Smad3, full length): 86%
- percent binding relative to wild-type Smad3 (Flag-SARA, full length): 158%
- percent binding relative to wild-type Smad3 [1]: 3%
- percent binding relative to wild-type Smad3 [2]: 83%
- percent binding relative to wild-type Smad3 [3]: 129%
- percent binding relative to wild-type Smad3 [4]: 160%
- percent binding relative to wild-type Smad3 [5]: 200%
- percent binding relative to wild-type Smad3 (Flag-Smad4, full length): 120%
Substance: Renilla luciferase-Smad3 Del-PPGY (182–185) (from UniProt P84022 1-425) (natural protein)
